Assay results taken from patent US20040267001A1, “Genes encoding baeyer-villiger monooxygenases” (priority 2001, published 2004).

Test: Conversion of cyclohexanone to caprolactone by E. coli clones expressing Rhodococcus erythropolis AN12 monooxygenases, GC-MS detection
Type: cell-based, Escherichia coli
Settings: 500 mg/L cyclohexanone, 0.1 mM IPTG, overnight at 24° C., GC-MS of ethylacetate extract
Experimental: Following amplification, the gene fragments were cloned into pTrcHis-TOPO TA vectors with either an N-terminal tail or C-terminal tail, as provided by the vector sequence. These vectors were transformed into E. coli, with transformants grown in Luria-Bertani broth supplemented with ampicillin (100 ug/ml).
The chnB monooxygenase activity of each expressed enzyme from Example 9 was tested for activity according to its ability to convert cyclohexanone to caprolactone.
Clones containing the full length monooxygenase genes were transferred from LB agar plate to 5 mL of M63 minimal media (GIBCO) containing 10 mM glycerol, 50 ug/mL ampicillin, 0.1 mM IPTG, and 500 mg/L cyclohexanone. In addition to the clones containing full length monooxygenases, a plasmid without an insert and a “no cell” control were also assayed. The encoded monooxygenase sequences were expressed upon addition of IPTG to the culture media. The cultures were incubated overnight at room temperature (24° C.). Samples (1.25 mL) for analysis were taken immediately after inoculation and after overnight incubation; cells were removed by centrifugation (4° C., 13,000 rpm).
Caprolactone formed by the action of the cloned monooxygenase was extracted from the aqueous phase with ethylacetate (1.0 ml aqueous/0.5 mL ethylacetate). Caprolactone was detected by gas chromotagraphy mass spectrometry (GC-MS) analysis, using an Agilent 6890 Gas chromatograph system.
The analysis of the ethylacetate phase was performed by injecting 1 uL of the ethyl acetate phase into the GC. The inlet temperature was 115° C. and the column temperature profile was 50° C. for 4 min and ramped to 250° C. at 20° C./min, for a total run time of 14 min. The compounds were separated with an Hewlet Packard HP-5MS (5% phenyl Methyl Siloxane) column (30 m length, 250 um diameter, and 0.25 um film thickness). The mass spectrometer was run in Electron Ionization mode. The background mass spectra was subtracted from the spectra at the retention time of caprolactone (9.857 min). Presence of caprolactone was confirmed by comparison of the test reactions to an authentic standard obtained from Aldrich Chemical Company (St. Louis, Mo.).
Results of these assays are shown below in Table 7, in terms of the presence or absence of detectable caprolactone formation according to the activity of each expressed BV monooxygenase enzyme.

Row | Molecule | Formation of Caprolactone (ability to convert cyclohexanone to caprolactone)
1 | ORF 17: Rhodococcus erythropolis AN12 ORF 17 chnB monooxygenase, protein SEQ ID NO:40, expressed in E. coli (protein, Rhodococcus erythropolis AN12) MTQHVDVLIIGAGLSGIGAACHLIREQTGSTYAILERRENIGGTWDLFKYPGIRSDSDMLTFGFGFRPWIGTKVLADGASIRDYVEETAKEYGVTDHINFGRKVVAMDFDRTAAQWSVTVLVEATGETETWTANVLVGACGYYNYDKGYRPAFPGEDDFRGQIVHPQHWPEDLDYTGKKVVVIGSGATAITLIPSMAPTAGHVTMLQRSPTWIQALPSEDPVAKGLKLARVPDQIAYKIGRARNIALQRASFQLSRTNPKLAKKLFLAQIRLQLGKNVDLRHFTPSYNPWDQRLCVVPNGDLFKVLKSGKADIVTDRIATFTEKGIVTESGREIEADVIVTATGLNVQILGGATMSIDGEPVKLNETVAYKSVLYSDIPNFLMILGYTNASWTLKADLAASYLCRVLKIMRDRSYTTFEVHAEPEDFAEESLMGGALTSGYIQRGDGEMPRQGARGAWKVVNNYYRDRKLMHDAEIEDGVLQFSKVDIAVVPDSKVASA | Detected
2 | ORF 18: Rhodococcus erythropolis AN12 ORF 18 chnB monooxygenase, protein SEQ ID NO:42, expressed in E. coli (protein, Rhodococcus erythropolis AN12) MSSRVNDGHIAIIGTGFSGLCMAIELKKKGIDDFVLYERADDVGGTWRDNTYPGAACDVPSVLYSYSFAQNPNWTRIFPPWSELLDYLRSVAAQYDLLPHIRFGVEVSEMRFDEDRLRWNIQFASGESVTAAVVVNGSGGLSNPYIPQLPGLESFEGAAFHSAKWRHDLDMSGRRVAVIGSGASAIQFVPEIAPHTETLHVFQRSPNWVMPRGDAALSPATRERFSRRPYRQRWLRWRTYWAFEKLASAFLGNRKLVEQYRSQALANLQQQVPDSDLRQKVTPDYDPGCKRRLISDDWYPALQRENVHLNTSGVSEIRPHSIIDSEGAEHEVDTLIFATGFQATSFLAPMKVFGREGVELSDSWREGAATKLGLASAAFPNLWFLNGPNTGLGHNSIIFMIEAQARYIASAVQYMRRKSITALELDRTVQTGSYAATQERMRRTVWASGGCDSWYQSADGRIDTLWPASTIEYWLRTRLFRKSDFHALTTGKG | Detected
3 | ORF 19: Rhodococcus erythropolis AN12 ORF 19 chnB monooxygenase, protein SEQ ID NO:44, expressed in E. coli (protein, Rhodococcus erythropolis AN12) MTTQKALTTVDAIVIGAGFGGIYAVHKLANELGLTTVGFDKADGPGGTWYWNRYPGALSDTESHVYRFSFDRDLLQDGTWKHTYTTQPEILEYLEDVVSRFDLRRHFHFGTAVESAVYLEDEQLWEVTTDTGEIYRATYVVNAVGLLSAINRPDLPGLETFEGETIHTAAWPEGKDLTGRRVGVIGTGSTGQQVITALAPTVEHLTVFVRTPQYSVPVGKRAVTDEQIDAVKADYENIWTQVKRSSVAFGFEESTVPAMSVSAEERLRVYEEAWEQGGGFRFMFGTFGDIATDEEANETAASFIRSKITAMIEDPETARKLTPTGLFARRPLCDDGYFQVFNRPNVEAVAIKENPIREITAKGVVTEDGVLHKLDVLVLATGFDAVDGNYRRMTISGRGGLNINDHWDGQPTSYLGIATANFPNWFMVLGPNGPFTNLPPSIETQVEWISDTIGYVERTGVRAIEPTPEAESAWTATCTDIANMTVFTKVDSWIFGANVPGKKPSVLFYLGGLGNYRAVLADVTEGGYQGFALKTADTVDA | Detected
4 | ORF 15: Rhodococcus erythropolis AN12 ORF 15 chnB monooxygenase, protein SEQ ID NO:36, expressed in E. coli (protein, Rhodococcus erythropolis AN12) MTIVTDLDRDHLRSAVLRGNVPTMLAVLLELTADERWVAPRYQPTRSRGMDDNSTGGLPEEVQSEIRSALIDAVERWWTLDEPSRRTLDSSEVERILNFTCSETVPPDFAPMMAEIVNGPQIKPATAKCDERLHAIVIGAGIAGMLASVELSRAGIPHVILEKNDDVGGSWWENRYPGAGVDTPSHLYSISSFPRNWSTHFGKRDEVQGYLEDFAEANDIRRNVRFRHEVTRAEFEESKQSWRVSVQRPGEASETLEAPILISAVGLLNRPKIPHLPGIETFRGRLFHSAEWPSELDDPESLRGKRVGIVGTGASAMQIGPAIADRVGSLTIFQRSPQWIAPNDDYFTTIDDGVHWLMDNIPGYREWYRARLSWIFNDKVYSSLQVDPDWPEPSASINATNHGHRKFYERYLRDQLGDRTDLIEASLPDYPPFGKRMLLDNGWFTMLRKPDVTLVPHGVDALTPSGLVDTNGVEHQLDVIVMATGFHSVRVLYPMDIVGRSGRSTGEIWGEHDARAYLGITVPDFPNFFVMTGPNTGLGHGGSFITILECQVRYIMDALKLMQSENLGAMECRAEVNDRYNEAVDRQHAQMVWTHPAMENWYRNPDGRVVSVLPWRINDYWAMTYRVDPSDFRTEPARSESVPTPTARG | Not Detected
